In PMC5663958, “DNA Ligase C and Prim-PolC participate in base excision repair in mycobacteria” (Nature Communications, 2017):

How the values were obtained:
[1] = target: T1, tag-free LigC1 (6xHis-LigC subjected to thrombin digestion) (M. smegmatis, UniProt A0R5T2 1-348); assay: pull-down; FPG-6xHis or 6xHis-MPG bound to Ni-NTA resin in 50 mM Tris pH 8.0, 150 mM NaCl, 1 h at 4 °C; tag-free LigC or BSA added for 2 h; equimolar proteins; eluted with imidazole; SDS-PAGE and Coomassie staining; conditions: both partners purified
T1 construct: ATP-dependent DNA ligase C1 of Mycobacterium smegmatis, locus msmeg_6302; same construct as m2 with the tag cut off by thrombin; The methods say 'LigC', the results 'LigC1'; source: E. coli Origami B pLysS, purified; His-tag removed by a standard thrombin digestion; not shown: 6xHis, N-terminal, cleaved
T1 sequence (looked up): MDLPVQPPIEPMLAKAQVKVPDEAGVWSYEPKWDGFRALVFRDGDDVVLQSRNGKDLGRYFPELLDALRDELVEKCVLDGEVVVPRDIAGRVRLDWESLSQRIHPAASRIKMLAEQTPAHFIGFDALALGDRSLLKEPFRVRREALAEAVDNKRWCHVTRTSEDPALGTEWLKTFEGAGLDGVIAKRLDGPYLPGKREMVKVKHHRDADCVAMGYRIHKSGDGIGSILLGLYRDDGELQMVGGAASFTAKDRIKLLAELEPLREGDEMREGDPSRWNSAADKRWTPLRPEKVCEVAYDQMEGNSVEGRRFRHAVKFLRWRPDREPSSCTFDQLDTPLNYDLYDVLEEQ

[2] = target: T2, DNA ligase C1 (LigC1, msmeg_6302), recombinant, His-tagged construct (M. smegmatis, UniProt A0R5T2 1-348); assay: far-Western, overlay or dot blot; recombinant proteins slot-blotted on a membrane (3 μg of the possible interactors, 50 ng of the probed protein), blocked in TBS, 0.05% Tween 20, 5% milk; incubated with 5 μg ml^−1 Prim-PolC or LigC1; detected with Prim-PolC- or LigC1-specific antibodies; conditions: both partners purified
T2 construct: ATP-dependent DNA ligase C1 of Mycobacterium smegmatis, locus msmeg_6302; Cloned in pET28; also called 6xHis-LigC; source: E. coli Origami B pLysS, purified (Ni Sepharose, ion exchange, gel filtration)
T2 sequence (looked up): T1 sequence (looked up)

- binding result [1]: binds
- binding result [2]: binds
B1: FPG (MutM) bifunctional glycosylase, recombinant (enzyme, M. smegmatis, UniProt A0QV21 1-285, looked up)
chain: MPELPEVEVVRRGLAEHVTGKTITGVRVHHPRAVRRHEAGPADLTARLLDVRITGTGRRGKYLWLTLDDSAALVVHLGMSGQMLLGPIRDTRHLRIAAVLDDGTALSFVDQRTFGGWQLTEMVTVDGTDVPEPVAHIARDPLDPLFDRDRVVTVLRGKHSEIKRQLLDQTVVSGIGNIYADEALWRTKINGARIAAALPRRRLAELLDAAAEVMTDALGQGGTSFDSLYVNVNGESGYFDRSLDAYGREGEPCRRCGAIMRREKFMNRSSFYCPRCQPRPRVPRV
notes: Bifunctional DNA glycosylase FPG (MutM) of Mycobacterium smegmatis; Cloned in pET28; also called FPG-6xHis; source: E. coli Origami B pLysS, purified (Ni Sepharose, ion exchange, gel filtration); not shown: 6xHis, C-terminal, kept
